For series [1], the target named is C-terminal domain of vaccinia virus C16 (vaccinia virus strain Western Reserve (WR)) (UniProt P03296). Briefly: SEC; C16-C alone. (In gel filtration, larger molecules generally elute earlier.)
Series [2] concerns the target vaccinia virus protein C4, full length, from baculovirus (vaccinia virus strain Western Reserve (WR)). Briefly: SEC.
Series [3] deals with the molecule itself. The experiment in a line: SEC.
Series [4] concerns the molecule itself. The experiment in a line: mass photometry; purified recombinant C16 alone.

One may read the stoichiometry N as the number of molecules, sites or subunits per partner or assembly.

“C-terminal domain of vaccinia virus C16 (from UniProt P03296) (domain or fragment)”: in series [1], the stoichiometry N was 2. Molecule “vaccinia virus protein C4, full length, from baculovirus (natural protein)” yielded a stoichiometry N in series [2] of 2.

B1: vaccinia virus (strain Western Reserve) protein C16, full length, from E. coli (natural protein)
chain: MDIYDDKGLQTIKLFNNEFDCIRNDIRELFKHVTDSDSIQLPMEDNSDIIENIRKILYRRLKNVECVDIDSTITFMKYDPNDDNKRTCSNWVPLTNNYMEYCLVIYLETPICGGKIKLYHPTGNIKSDKDIMFAKTLDFKSKKVLTGRKTIAVLDISVSYNRSMTTIHYNDDVDIDIHTDKNGKELCYCYITIDDHYLVDVETIGVIVNRSGKCLLVNNHLGIGIVKDKRISDSFGDVCMDTIFDFSEARELFSLTNDDNRNIAWDTDKLDDDTDIWTPVTEDDYKFLSRLVLYAKSQSDTVFDYYVLTGDTEPPTVFIFKVTRFYFNMPK
notes: also called VACV-C16; FLC16
On to B1, for which the “stoichiometry N” value in series [3] is 2; in series [4] it was 4.

For the origin of these results see PMC9674614 (Nature Communications, 2022).
